Measured values reported in patent US20240165282A1, “CONFORMATIONAL CONSTRAINED SOMATOSTATIN RECEPTOR 3 PEPTIDE LIGANDS AND THEIR CONJUGATES AND USES THEREOF” (STARGET PHARMA LTD., priority 2021, published 2024).
*1 amine or outer side, *2 acyl side, *3 side chain or, on linkers, in order; H or OH if unused. Bridges are numbered along the chain shown (N, C = ends). [ ]: non-standard residue; d: D form. The star is where a group is joined. DOTA = O=C(O)CN1CCN(CC(=O)O)CCN(CC(=O)*)CCN(CC(=O)O)CC1; N(2-mercaptoethyl)Gly = O=C(CN(CCS[*:3])[*:1])[*:2]; 4Amb = NCc1ccc(C(=O)O)cc1; Aoc = NCCCCCCCC(=O)O; CPT = camptothecin

How the values were obtained:
Assay in all cases: Radioligand binding, displacement of 125I-Tyr11-SRIF-14
[1] = target: T1, hSSTR-4 (Homo sapiens, UniProt P31391); conditions: hSSTR-4
T1 construct: host or cells: Chem-1 (Rat ChemiSCREEN) cells, membrane preparation
Source text: (§1) The binding to human cloned receptors SSTR-1, or SSTR-2 or SSTR-3 evaluated in stable and selective transfected CHO (Chinese Hamster Ovary) cells and binding to STSR-4 and SSTR-5 in stable and selective transfected Chem-1 (Rat ChemiSCREEN) cells. […] The binding reactions were filtered, the filters were washed, and the bound radioactivity was counted using a gamma counter.
(§2) The following table depicts the conditions of binding assay to each of the somatostatin receptors used for the evaluations of binding affinities of the tested peptides. All assays were performed by quantitation method of radioligand binding under 25° C. The vehicle was 1% DMSO, the incubation buffer was 25 mM HEPES, pH 7.4, 5 mM MgCl2, 1 mM CaCl2, 0.1% BSA. […] The significance criteria were >50% of max inhibition. […] This specific binding data used for calculation of Bmax values which is the concentration of each of the expressed cloned receptor in its transfected cell system.
(§3) The Results of IC50 values were determined by a non-linear, least squares regression analysis using MathIQ™ (ID Business Solutions Ltd., UK). […] The Hill coefficient (nH), defining the slope of the competitive binding curve, was calculated using MathIQ™.

[2] = target: SSTR5 (Homo sapiens, UniProt P35346); parameters: host or cells: Chem-1 (Rat ChemiSCREEN) cells, membrane preparation; conditions: hSSTR-5
Source text: as §1, §2, §3

[3] = target: SSTR1 (Homo sapiens, UniProt P30872); parameters: host or cells: CHO (Chinese Hamster Ovary) cells, membrane preparation; conditions: hSSTR-1
Source text: as §1, §2, §3

[4] = target: SSTR2 (Homo sapiens, UniProt P30874); parameters: host or cells: CHO (Chinese Hamster Ovary) cells, membrane preparation; conditions: hSSTR-2
Source text: as §1, §2, §3

[5] = target: SSTR3 (Homo sapiens, UniProt P32745); parameters: host or cells: CHO (Chinese Hamster Ovary) cells, membrane preparation; conditions: for % displacement of [^125I] Tyr^11-SRIF-14: hSSTR-3
Source text: as §1, §2, §3

T1 sequence (P31391 whole entry): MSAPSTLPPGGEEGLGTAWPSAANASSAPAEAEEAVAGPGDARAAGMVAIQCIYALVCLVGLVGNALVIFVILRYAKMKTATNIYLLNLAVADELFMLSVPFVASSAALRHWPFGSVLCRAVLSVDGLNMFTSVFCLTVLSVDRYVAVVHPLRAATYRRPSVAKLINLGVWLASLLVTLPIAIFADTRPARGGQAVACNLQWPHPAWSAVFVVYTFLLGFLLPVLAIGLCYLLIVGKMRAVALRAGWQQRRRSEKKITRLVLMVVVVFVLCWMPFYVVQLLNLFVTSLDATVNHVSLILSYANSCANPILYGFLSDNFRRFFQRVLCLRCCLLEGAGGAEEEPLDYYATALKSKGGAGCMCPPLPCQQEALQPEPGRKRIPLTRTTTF
Chain of SSTR1 (P30872 whole entry): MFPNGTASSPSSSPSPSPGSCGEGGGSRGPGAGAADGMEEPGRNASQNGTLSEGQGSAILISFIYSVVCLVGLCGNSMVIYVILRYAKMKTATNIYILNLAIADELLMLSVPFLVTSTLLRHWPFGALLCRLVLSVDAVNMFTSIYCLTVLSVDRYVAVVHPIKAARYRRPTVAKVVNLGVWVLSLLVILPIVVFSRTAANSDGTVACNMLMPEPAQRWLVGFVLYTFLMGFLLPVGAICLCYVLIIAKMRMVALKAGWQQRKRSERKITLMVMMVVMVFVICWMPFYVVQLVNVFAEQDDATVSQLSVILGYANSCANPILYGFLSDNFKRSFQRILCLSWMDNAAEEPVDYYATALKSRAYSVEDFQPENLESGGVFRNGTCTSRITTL
Chain of SSTR3 (P32745 whole entry): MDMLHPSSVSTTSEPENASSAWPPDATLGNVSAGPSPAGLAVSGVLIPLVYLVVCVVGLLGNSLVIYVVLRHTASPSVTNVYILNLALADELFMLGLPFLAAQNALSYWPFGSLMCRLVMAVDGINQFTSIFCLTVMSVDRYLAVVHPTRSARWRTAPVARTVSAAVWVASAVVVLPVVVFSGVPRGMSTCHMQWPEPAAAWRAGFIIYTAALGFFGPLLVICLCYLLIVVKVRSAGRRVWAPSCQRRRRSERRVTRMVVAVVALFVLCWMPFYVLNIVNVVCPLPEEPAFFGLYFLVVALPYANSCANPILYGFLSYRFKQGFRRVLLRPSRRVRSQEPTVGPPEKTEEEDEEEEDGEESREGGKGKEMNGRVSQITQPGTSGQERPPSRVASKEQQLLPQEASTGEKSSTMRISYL
Chain of SSTR5 (P35346 whole entry): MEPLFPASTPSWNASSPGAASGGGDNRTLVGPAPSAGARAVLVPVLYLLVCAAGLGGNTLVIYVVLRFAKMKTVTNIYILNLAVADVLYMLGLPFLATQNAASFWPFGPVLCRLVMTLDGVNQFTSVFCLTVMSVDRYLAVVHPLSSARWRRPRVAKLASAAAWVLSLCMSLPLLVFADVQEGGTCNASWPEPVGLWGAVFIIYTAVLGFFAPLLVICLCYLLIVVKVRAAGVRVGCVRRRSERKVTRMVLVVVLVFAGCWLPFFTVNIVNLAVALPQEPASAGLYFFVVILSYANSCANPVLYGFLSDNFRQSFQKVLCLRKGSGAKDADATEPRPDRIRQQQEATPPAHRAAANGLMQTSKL
Chain of SSTR2 (P30874 whole entry): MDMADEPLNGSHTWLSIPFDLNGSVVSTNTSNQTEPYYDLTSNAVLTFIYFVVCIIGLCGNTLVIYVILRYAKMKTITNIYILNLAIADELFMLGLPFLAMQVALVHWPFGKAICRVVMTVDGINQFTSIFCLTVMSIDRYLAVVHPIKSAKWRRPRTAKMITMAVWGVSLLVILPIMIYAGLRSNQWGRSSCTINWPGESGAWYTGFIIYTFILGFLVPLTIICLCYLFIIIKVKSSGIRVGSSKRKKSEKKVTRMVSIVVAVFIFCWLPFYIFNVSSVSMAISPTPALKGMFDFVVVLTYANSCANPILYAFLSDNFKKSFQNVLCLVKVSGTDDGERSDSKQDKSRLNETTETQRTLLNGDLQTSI

Row | Substance | % displacement of [^125I] Tyr^11-SRIF-14 ([1]; at 1 nM (in brackets)) | % displacement of [^125I] Tyr^11-SRIF-14 ([1]; at 10 nM) | % displacement of [^125I] Tyr^11-SRIF-14 ([2]; at 1 nM (in brackets)) | % displacement of [^125I] Tyr^11-SRIF-14 ([2]; at 10 nM) | % displacement of [^125I] Tyr^11-SRIF-14 ([3]; at 1 nM (in brackets)) [%] | % displacement of [^125I] Tyr^11-SRIF-14 ([3]; at 10 nM) [%] | % displacement of [^125I] Tyr^11-SRIF-14 ([4]; at 1 nM (in brackets)) | % displacement of [^125I] Tyr^11-SRIF-14 ([4]; at 10 nM) | % displacement of [^125I] Tyr^11-SRIF-14 ([5]; at 1 nM (in brackets)) [%] | % displacement of [^125I] Tyr^11-SRIF-14 ([5]; at 10 nM) [%] | affinity to SSTR3 [5] [nM] | affinity and selectivity to SSTR3 (in words) ([5]; binding data)
1 | (DOTA)2-Lys^1-D-Phe^2-Arg^3-Cys^4-Phe^5-D-Trp^6-Lys^7-Thr^8-Phe^9-NTEG^10-NH2 (cyclo 3-9) ({DOTA}-K(DOTA)[dF]RCF[dW]KTF[N(2-mercaptoethyl)Gly]-NH2; disulfide 4-10 (inferred); not fully specified; printed as (DOTA)2-Lys1-D-Phe2-Arg3-Cys4-Phe5-D-Trp6-Lys7-Thr8-Phe9-NTEG10-NH2 (cyclo 3-9)) [SEQ ID NO: 16] | 0(0) % | 0(0) % | 0% | 3% | 0 | 5 | 6% | 2% | 47 | 88 | – | –
2 | CPT-8-aminooctanoic acid-D-Phe^1-Arg^2-Cys^3-Phe^4-D-Trp^5-Lys^6-Thr^7-Phe^8-NTEG^9-NH2 (cyclo 3-9) ({CPT-Aoc}-[dF]RCF[dW]KTF[N(2-mercaptoethyl)Gly]-NH2; disulfide 3-9) [SEQ ID NO: 27] | 0(0) % | 0(0) % | 0(0) % | 0(0) % | 0 | 3 | 0(0) % | 0(0) % | 12 | 51 | ≤ 10 | the same selectivity to SSTR3 as SEQ ID NO: 1
3 | DOTA-4-Amb-D-Phe^1-Arg^2-Cys^3-Phe^4-D-Trp^5-Lys^6-Thr^7-Phe^8-NTEG^9-NH2 (cyclo 3-9) ({DOTA-4Amb}-[dF]RCF[dW]KTF[N(2-mercaptoethyl)Gly]-NH2; disulfide 3-9) [SEQ ID NO: 18] | 0% | 8% | 0(0) % | 0(0) % | 0 | 4 | 0(0) % | 0(0) % | 49 | 85 | – | –
4 | DOTA-8-aminooctanoic acid-D-Phe^1-Arg^2-Cys^3-Phe4-D-Trp^5-Lys^6-Thr^7-Phe^8-NTEG^9-NH^2(cyclo 3-9) ({DOTA-Aoc}-[dF]RCF[dW]KTF[N(2-mercaptoethyl)Gly]-NH2; disulfide 3-9) [SEQ ID NO: 15] | 0(0) % | 0(0) % | 0(0) % | 0(0) % | 6 | 18 | 1% | 0% | 49 | 87 | – | –
5 | DOTA-Ala^1-D-Phe^2-Arg^3-Cys^4-Phe^5-D-Trp^6-Lys^7-Thr^8-Phe^9-NTEG^10-NH2 (cyclo 4-10) ({DOTA}-A[dF]RCF[dW]KTF[N(2-mercaptoethyl)Gly]-NH2; disulfide 4-10; SMILES C[C@H](NC(=O)CN1CCN(CC(=O)O)CCN(CC(=O)O)CCN(CC(=O)O)CC1)C(=O)N[C@H](Cc1ccccc1)C(=O)N[C@@H](CCCNC(=N)N)C(=O)N[C@H]1CSSCCN(CC(N)=O)C(=O)[C@H](Cc2ccccc2)NC(=O)[C@H]([C@@H](C)O)NC(=O)[C@H](CCCCN)NC(=O)[C@@H](Cc2c[nH]c3ccccc23)NC(=O)[C@H](Cc2ccccc2)NC1=O) [SEQ ID NO: 12] | 0(0) % | 0(0) % | 0% | 13% | 0 | 10 | 0(0) % | 0(0) % | 64 | 93 | – | –
